Publication PMC8287954, “Assembly of higher-order SMN oligomers is essential for metazoan viability and requires an exposed structural motif present in the YG zipper dimer” (Nucleic Acids Research, 2021)
“And” between values parts separate entries of the source, which are not always exact repeats. Equal entries are not always repeated.

B1: Drosophila melanogaster Gemin2 (natural protein, UniProt Q9VVX0 1-245, looked up)
chain: MQHEPEDQTFQLQALEICEPDSSFDPQKPPESGEEYLMHMFYERKRCPAVVTKRSSKIRNNTGNTTLEMLDNPELPPFKCLLPTPEWRDEQVKSFQAARSQVLVLRKELANNNYDQSGEPPLTSDQEKWKEFCRNQQPLLSTLLHLTQNDLELLLEMLSKWLQDPNTTVDLLHDVWLARWLYATLVCLHLPLEPHVFSTLRYIARTCIHLRNQLKEDEVQRAAPYNLLLTLTVQVFAQNDFKDYI
notes: Drosophila melanogaster Gemin2 (dmGemin2); also called dmGemin2; dmG2; source: E. coli BL21(DE3), purified (Ni-NTA, chitin beads, Superdex 200)

Experiments:
[1] = target: the molecule itself; test: AUC; sedimentation equilibrium, 4°C, 20 mM Tris-HCl pH7.4, 200 mM NaCl, 5 mM DTT; monomer to dimer
[2] = target: the molecule itself; test: SEC-MALS; Superdex 200 10/300 GL, 0.5 ml/min, room temperature (20°C), 50 mM HEPES-NaOH pH 7.5, 250 mM NaCl, 5 mM DTT; self-association of the SMN•G2 unit, (SMN•G2)n
[3] = target: the molecule itself; test: not stated; shown in Supplementary Figure S2; method not given
[4] = target: the molecule itself; test: cross-linking; disulfide cross-linking of single-cysteine MBP-YG box fusions, 5 μM, 20 mM Tris-HCl pH 7.4, 200 mM NaCl, 1 mM EDTA, 10 mM maltose, 160 μM diamide, 1 h, 20°C; non-reducing SDS-PAGE
[5] = target: the molecule itself; test: SEC-MALS; Superdex 200 10/300 GL, 0.5 ml/min, room temperature (20°C), 50 mM HEPES-NaOH pH 7.5, 250 mM NaCl, 5 mM DTT; self-association of the SMN•G2 unit, (SMN•G2)n; remark: listed apart in the source
[6] = target: the molecule itself; test: AUC; sedimentation velocity, 20 mM HEPES–NaOH pH 7.5, 300 mM NaCl, 0.1 mM TCEP, 0.16–1.0 mg/ml, 40 000 rpm; 25°C and 4°C (smaller species at 4°C)
[7] = target: B1; test: SEC; complex reconstituted from separately purified proteins, two molar excess of dmGemin2, HFS tag cut with Ulp1, second Ni-NTA pass, Superdex 200 16/60 at 20°C, 20 mM Na/KPO4 pH 7.0, 300 mM NaCl, 1 mM DTT; conditions: both partners purified

Q: For B1, which Kd [1] is on record?
A: The Kd was 33.4 ± 5 µM.

B2: Schizosaccharomyces pombe SMN•Gemin2 complex (complex)
chain 1: MDQSQKEVWDDSELRNAFETALHEFKKYHSIEAKGGVSDPDSRLDGEKLISAARTEESISKLEEGEQMINQQTETTLEGDTHIQQFADNKGLSDEKPETRAAETHQEFMEVPPPIRGLTYDETYKKLIMSWYYAGYYTGLAEGLAKSEQRKD
chain 2: MPSKRKRNPLQYQTSGSLDEETNQRSAFPQIDNNSASESLEYDIPLDGLDYLATVREEARKLVPFVAARREPETRETIPLRKLEIEAGKKSFDPFLRYLLNIIDKEGERLEQYMESSSLDASILPKNLQQWRVYIEHKAPCWAILAVVDLATVLEILESLSSWLEKDAIDLQSQWIFCFCYKLPELLNGEDISTLRSVLKSLRSTHTSFPALQMSASALQAVLVYRYGQKDLFQT
notes: S. pombe SMN (Smn1p); S. pombe Gemin2; also called spSMN•G2; wild-type Smn1p; source: bacterial co-expression, purified as previously described (24)
Q: Which “stoichiometry N” value [2] does the source give for B2 here?
A: The value was 2 and 4.

B3: spSMN(A141Q)•Gemin2 (complex, Schizosaccharomyces pombe)
chain 1: MDQSQKEVWDDSELRNAFETALHEFKKYHSIEAKGGVSDPDSRLDGEKLISAARTEESISKLEEGEQMINQQTETTLEGDTHIQQFADNKGLSDEKPETRAAETHQEFMEVPPPIRGLTYDETYKKLIMSWYYAGYYTGLQEGLAKSEQRKD
chain 2: MPSKRKRNPLQYQTSGSLDEETNQRSAFPQIDNNSASESLEYDIPLDGLDYLATVREEARKLVPFVAARREPETRETIPLRKLEIEAGKKSFDPFLRYLLNIIDKEGERLEQYMESSSLDASILPKNLQQWRVYIEHKAPCWAILAVVDLATVLEILESLSSWLEKDAIDLQSQWIFCFCYKLPELLNGEDISTLRSVLKSLRSTHTSFPALQMSASALQAVLVYRYGQKDLFQT
notes: S. pombe SMN (Smn1p); S. pombe Gemin2; also called spA141Q; source: recombinant; yeast SMN•G2 complexes purified as previously described (24)
Q: Does B3 bind [2]?
A: Result: binds

B4: spSMN(A145Q)•Gemin2 (complex, Schizosaccharomyces pombe)
chain 1: MDQSQKEVWDDSELRNAFETALHEFKKYHSIEAKGGVSDPDSRLDGEKLISAARTEESISKLEEGEQMINQQTETTLEGDTHIQQFADNKGLSDEKPETRAAETHQEFMEVPPPIRGLTYDETYKKLIMSWYYAGYYTGLAEGLQKSEQRKD
chain 2: MPSKRKRNPLQYQTSGSLDEETNQRSAFPQIDNNSASESLEYDIPLDGLDYLATVREEARKLVPFVAARREPETRETIPLRKLEIEAGKKSFDPFLRYLLNIIDKEGERLEQYMESSSLDASILPKNLQQWRVYIEHKAPCWAILAVVDLATVLEILESLSSWLEKDAIDLQSQWIFCFCYKLPELLNGEDISTLRSVLKSLRSTHTSFPALQMSASALQAVLVYRYGQKDLFQT
notes: S. pombe SMN (Smn1p); S. pombe Gemin2; also called spA145Q; source: recombinant; yeast SMN•G2 complexes purified as previously described (24)
Q: Does B4 bind [2]?
A: Result: binds

B5: spSMN(Y137H)•Gemin2 (complex, Schizosaccharomyces pombe)
chain 1: MDQSQKEVWDDSELRNAFETALHEFKKYHSIEAKGGVSDPDSRLDGEKLISAARTEESISKLEEGEQMINQQTETTLEGDTHIQQFADNKGLSDEKPETRAAETHQEFMEVPPPIRGLTYDETYKKLIMSWYYAGYHTGLAEGLAKSEQRKD
chain 2: MPSKRKRNPLQYQTSGSLDEETNQRSAFPQIDNNSASESLEYDIPLDGLDYLATVREEARKLVPFVAARREPETRETIPLRKLEIEAGKKSFDPFLRYLLNIIDKEGERLEQYMESSSLDASILPKNLQQWRVYIEHKAPCWAILAVVDLATVLEILESLSSWLEKDAIDLQSQWIFCFCYKLPELLNGEDISTLRSVLKSLRSTHTSFPALQMSASALQAVLVYRYGQKDLFQT
notes: S. pombe SMN (Smn1p); S. pombe Gemin2; also called spY137H; source: recombinant; yeast SMN•G2 complexes purified as previously described (24)
Q: Does B5 bind [2]?
A: Result: binds

B6: spSMN(G143V)•Gemin2 (complex, Schizosaccharomyces pombe)
chain 1: MDQSQKEVWDDSELRNAFETALHEFKKYHSIEAKGGVSDPDSRLDGEKLISAARTEESISKLEEGEQMINQQTETTLEGDTHIQQFADNKGLSDEKPETRAAETHQEFMEVPPPIRGLTYDETYKKLIMSWYYAGYYTGLAEVLAKSEQRKD
chain 2: MPSKRKRNPLQYQTSGSLDEETNQRSAFPQIDNNSASESLEYDIPLDGLDYLATVREEARKLVPFVAARREPETRETIPLRKLEIEAGKKSFDPFLRYLLNIIDKEGERLEQYMESSSLDASILPKNLQQWRVYIEHKAPCWAILAVVDLATVLEILESLSSWLEKDAIDLQSQWIFCFCYKLPELLNGEDISTLRSVLKSLRSTHTSFPALQMSASALQAVLVYRYGQKDLFQT
notes: S. pombe SMN (Smn1p); S. pombe Gemin2; also called spG143V; source: recombinant; yeast SMN•G2 complexes purified as previously described (24)
Q: Does B6 bind [2]?
A: Result: binds

B7: MBP-dmSMN^186-220 (domain or fragment, Drosophila melanogaster, UniProt Q9VV74 186-220, looked up)
chain: GAEQDFVAMLTAWYMSGYYTGLYQGKKEASTTSGK
notes: The SEC-SAXS methods print 189-220 for this fusion; also called MBP-dmSMN^189–220; source: expressed from pETDuet at 37°C, purified (amylose resin, Superdex-200); not shown: MBP, N-terminal, kept
Q: For B7, which “stoichiometry N” value [3] is on record?
A: Its value is 4 and 8.

B8: MBP-hsSMN^252-294(C289A, N283C) (domain or fragment, human, UniProt Q16637 252-294, looked up)
chain: DSLDDADALGSMLISWYMSGYHTGYYMGFRQCQKEGRASHSLN
notes: human SMN YG box, residues 252-294; also called hsSMN^N283C; source: E. coli BL21(DE3), purified (amylose resin); not shown: MBP, N-terminal, kept
Q: Does B8 bind [4]?
A: Result: binds

B9: MBP-hsSMN^252-294(C289A, S262C) (domain or fragment, human, UniProt Q16637 252-294, looked up)
chain: DSLDDADALGCMLISWYMSGYHTGYYMGFRQNQKEGRASHSLN
notes: human SMN YG box, residues 252-294; source: E. coli BL21(DE3), purified (amylose resin); not shown: MBP, N-terminal, kept
Q: Does B9 bind [4]?
A: Result: binds

B10: MBP-hsSMN^252-294(C289A, T274C) (domain or fragment, human, UniProt Q16637 252-294, looked up)
chain: DSLDDADALGSMLISWYMSGYHCGYYMGFRQNQKEGRASHSLN
notes: human SMN YG box, residues 252-294; also called hsT274C; source: E. coli BL21(DE3), purified (amylose resin); not shown: MBP, N-terminal, kept
Q: Does B10 bind [4]?
A: Result: binds

B11: MBP-hsSMN^252-294(C289A, R281C) (domain or fragment, human, UniProt Q16637 252-294, looked up)
chain: DSLDDADALGSMLISWYMSGYHTGYYMGFCQNQKEGRASHSLN
notes: as for B9
Q: Does B11 bind [4]?
A: Result: binds

B12: MBP-hsSMN^252-294(C289A, Y277C) (domain or fragment, human, UniProt Q16637 252-294, looked up)
chain: DSLDDADALGSMLISWYMSGYHTGYCMGFRQNQKEGRASHSLN
notes: human SMN YG box, residues 252-294; also called hsY277C; source: E. coli BL21(DE3), purified (amylose resin); not shown: MBP, N-terminal, kept
Q: Does B12 bind [4]?
A: Result: binds

B13: Hs^1-275-GCN4(IL) chimera•Gemin2 (complex)
chain 1: not shown
chain 2: MAWVPAESAVEELMPRLLPVEPCDLTEGFDPSVPPRTPQEYLRRVQIEAAQCPDVVVAQIDPKKLKRKQSVNISLSGCQPAPEGYSPTLQWQQQQVAQFSTVRQNVNKHRSHWKSQQLDSNVTMPKSEDEEGWKKFCLGEKLCADGAVGPATNESPGIDYVQIGFPPLLSIVSRMNQATVTSVLEYLSNWFGERDFTPELGRWLYALLACLEKPLLPEAHSLIRQLARRCSEVRLLVDSKDDERVPALNLLICLVSRYFDQRDLADEPS
Q: B13 was tested. Which “stoichiometry N” value [5] did it give?
A: Its value is 2.

B14: MBP-spSMN YG box (112–152) A141Y, A145C (domain or fragment, Schizosaccharomyces pombe, UniProt Q09808 112-152, looked up)
chain: PPPIRGLTYDETYKKLIMSWYYAGYYTGLYEGLCKSEQRKD
notes: S. pombe SMN, residues 112-152; SMN residues fused to the penultimate Thr of E. coli MBP with a Gly-Ser linker; also called A145C mutant with an A141Y substitution; source: E. coli BL21(DE3), purified (amylose resin); not shown: MBP, N-terminal, kept
Q: Does B14 bind [4]?
A: Result: binds

B15: Drosophila melanogaster SMN (natural protein, UniProt Q9VV74 1-226, looked up)
chain: MSDETNAAVWDDSLLVKTYDESVGLAREALARRLADSTNKREEENAAAAEEEAGEISATGGATSPEPVSFKVGDYARATYVDGVDYEGAVVSINEEKGTCVLRYLGYENEQEVLLVDLLPSWGKRVRREQFLIAKKDEDEQLSRPKASAGSHSKTPKSSRRSRISGGLVMPPMPPVPPMIVGQGDGAEQDFVAMLTAWYMSGYYTGLYQGKKEASTTSGKKKTPKK
notes: Drosophila melanogaster SMN (dmSMN); In the reconstitution the HFS tag was cut off with Ulp1 after dmGemin2 was added; also called dmSMN; source: E. coli BL21(DE3), purified (Ni-NTA after lysis in guanidine•HCl, urea wash)
Q: What does the source list for B15?
A: binding result [6]: binds; binding result [7]: binds
